Experimental findings from article doi:10.1101/2024.06.07.597973 are described below.

A word on the Kd: it is a measure of binding affinity in units of concentration.

The target of the assay is human melanocortin 4 receptor (MC4R) (human) (UniProt P32245). The experiment in a line: radioligand binding.
Chain of UniProt P32245 (P32245 whole entry): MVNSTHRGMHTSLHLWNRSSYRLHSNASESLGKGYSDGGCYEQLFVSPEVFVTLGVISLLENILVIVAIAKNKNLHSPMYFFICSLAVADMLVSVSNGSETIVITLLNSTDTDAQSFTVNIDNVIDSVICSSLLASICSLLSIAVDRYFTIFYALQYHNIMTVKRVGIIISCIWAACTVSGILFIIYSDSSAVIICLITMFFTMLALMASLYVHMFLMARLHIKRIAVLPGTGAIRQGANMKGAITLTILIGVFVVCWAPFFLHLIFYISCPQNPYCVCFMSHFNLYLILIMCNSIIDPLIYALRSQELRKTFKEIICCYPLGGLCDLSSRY

Substance [^125I]-[Nle^4, DPhe^7]-α-MSH (peptide) gave a Kd of 0.1 nM.
